Earlier results as cited in patent publication US20080125354A1, “SELECTIVE INHIBITION OF MATRIX METALLOPROTEINASES” (Florida Atlantic University, priority 2005, published 2008).
One block for each substance: values may come before it.

Legend:
[1] = biological target: MMP-14 (Homo sapiens, UniProt P50281); conditions: 30° C., 40 nM enzyme, 40 μM substrate
[2] = biological target: T1, MMP-1 (Homo sapiens, UniProt P03956); conditions: 30° C., 40 nM enzyme, 40 μM substrate
T1 construct: made in house
T1 sequence (P03956 100-469): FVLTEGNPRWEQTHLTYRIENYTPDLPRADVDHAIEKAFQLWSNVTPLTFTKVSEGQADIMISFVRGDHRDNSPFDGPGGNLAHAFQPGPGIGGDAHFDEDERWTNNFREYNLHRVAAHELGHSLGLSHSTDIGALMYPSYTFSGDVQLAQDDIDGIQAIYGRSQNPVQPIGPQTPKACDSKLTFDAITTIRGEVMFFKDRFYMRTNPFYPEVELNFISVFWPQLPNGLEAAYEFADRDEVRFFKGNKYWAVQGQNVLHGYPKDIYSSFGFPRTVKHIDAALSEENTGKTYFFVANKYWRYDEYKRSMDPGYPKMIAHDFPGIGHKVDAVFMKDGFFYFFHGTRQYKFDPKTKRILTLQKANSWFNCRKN

[3] = biological target: T2, MMP-2 (Homo sapiens, UniProt P08253); conditions: 30° C., 40 nM enzyme, 40 μM substrate
T2 sequence (P08253 110-660): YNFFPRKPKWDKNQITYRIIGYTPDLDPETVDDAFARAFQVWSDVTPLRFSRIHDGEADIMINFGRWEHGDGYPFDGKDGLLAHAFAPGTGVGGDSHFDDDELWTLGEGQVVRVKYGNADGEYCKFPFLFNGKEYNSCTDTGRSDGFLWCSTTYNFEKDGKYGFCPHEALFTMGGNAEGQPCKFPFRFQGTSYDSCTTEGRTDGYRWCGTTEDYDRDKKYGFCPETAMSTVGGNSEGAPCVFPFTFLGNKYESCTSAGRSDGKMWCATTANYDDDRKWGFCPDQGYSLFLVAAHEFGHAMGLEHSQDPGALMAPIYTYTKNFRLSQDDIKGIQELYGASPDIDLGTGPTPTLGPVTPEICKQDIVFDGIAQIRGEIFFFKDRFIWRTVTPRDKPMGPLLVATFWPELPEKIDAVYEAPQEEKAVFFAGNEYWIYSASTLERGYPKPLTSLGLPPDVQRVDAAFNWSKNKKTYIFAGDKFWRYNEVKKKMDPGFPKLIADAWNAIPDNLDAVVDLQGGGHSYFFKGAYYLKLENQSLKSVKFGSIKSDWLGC

[4] = biological target: T3, MMP-8 (Homo sapiens, UniProt P22894); conditions: 30° C., 40 nM enzyme, 40 μM substrate
T3 construct: made in house; host or cells: CHO-K1 cells

[5] = biological target: T4, MMP-13 (Homo sapiens, UniProt P45452); conditions: 30° C., 40 nM enzyme, 40 μM substrate
T4 construct: purchased R&D Systems (Minneapolis, Minn.)

[6] = biological target: T5, MMP-3 (Homo sapiens, UniProt P08254); conditions: 30° C., 40 nM enzyme, 40 μM substrate
T5 construct: made in house

[7] = biological target: T2, MMP-2; conditions: MMP-2, earlier study
[8] = biological target: MMP-9 (Homo sapiens, UniProt P14780); conditions: 30° C., 40 nM enzyme, 40 μM substrate
[9] = biological target: T1, MMP-1; conditions: MMP-1, second earlier study

Chain of MMP-9 (P14780 94-707): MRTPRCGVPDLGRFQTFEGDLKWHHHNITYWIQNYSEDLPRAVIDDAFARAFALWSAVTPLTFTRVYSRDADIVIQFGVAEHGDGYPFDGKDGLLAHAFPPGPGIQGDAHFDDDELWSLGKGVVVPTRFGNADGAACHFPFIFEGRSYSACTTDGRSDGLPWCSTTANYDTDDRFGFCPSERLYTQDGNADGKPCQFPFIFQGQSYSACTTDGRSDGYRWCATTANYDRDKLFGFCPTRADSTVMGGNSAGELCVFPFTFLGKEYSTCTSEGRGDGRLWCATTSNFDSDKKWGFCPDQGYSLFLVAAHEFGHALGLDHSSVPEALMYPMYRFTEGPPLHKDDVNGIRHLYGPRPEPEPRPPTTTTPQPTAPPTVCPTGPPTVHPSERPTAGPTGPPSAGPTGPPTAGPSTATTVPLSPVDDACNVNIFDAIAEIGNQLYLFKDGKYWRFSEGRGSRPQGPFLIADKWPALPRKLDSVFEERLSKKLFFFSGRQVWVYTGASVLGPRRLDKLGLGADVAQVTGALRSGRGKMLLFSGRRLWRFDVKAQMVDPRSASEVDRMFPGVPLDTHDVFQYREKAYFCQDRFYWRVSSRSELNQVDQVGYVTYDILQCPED
T5 sequence (P08254 100-477, species assumed): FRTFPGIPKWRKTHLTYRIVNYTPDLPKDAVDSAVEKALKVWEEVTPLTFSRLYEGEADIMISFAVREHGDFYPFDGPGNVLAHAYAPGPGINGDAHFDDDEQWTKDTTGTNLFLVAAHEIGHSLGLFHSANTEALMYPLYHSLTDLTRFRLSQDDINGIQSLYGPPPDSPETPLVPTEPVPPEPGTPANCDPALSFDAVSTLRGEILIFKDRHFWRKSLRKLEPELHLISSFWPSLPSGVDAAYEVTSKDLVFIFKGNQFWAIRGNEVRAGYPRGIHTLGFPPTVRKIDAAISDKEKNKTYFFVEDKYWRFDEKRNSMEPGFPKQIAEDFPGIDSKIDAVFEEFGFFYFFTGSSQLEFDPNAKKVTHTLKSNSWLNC
T3 sequence (P22894 101-467, species assumed): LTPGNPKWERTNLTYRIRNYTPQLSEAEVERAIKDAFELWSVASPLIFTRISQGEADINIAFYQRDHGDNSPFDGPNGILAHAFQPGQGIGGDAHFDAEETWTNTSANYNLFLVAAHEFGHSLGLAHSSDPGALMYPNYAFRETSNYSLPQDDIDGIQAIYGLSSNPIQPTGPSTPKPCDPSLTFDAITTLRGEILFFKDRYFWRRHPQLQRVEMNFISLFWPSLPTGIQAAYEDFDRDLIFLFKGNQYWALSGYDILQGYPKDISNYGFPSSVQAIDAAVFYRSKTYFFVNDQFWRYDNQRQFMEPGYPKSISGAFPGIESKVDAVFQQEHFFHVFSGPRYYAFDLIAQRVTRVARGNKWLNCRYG

Substance: (Gly-Pro-Hyp)5-Gly-Pro-Gln-Gly˜Leu-Ala-Gly-Gln-Arg-Gly-Ile-Arg-(Gly-Pro-Hyp)5-NH2 [SEQ ID NO: 6]
hydrolysis of the substrate by MMP-14 (in words) [1]: hydrolyzed the substrate efficiently | hydrolysis of the substrate by MMP-1 (in words) [2]: hydrolyzed the substrate efficiently | hydrolysis of the substrate by MMP-2 (in words) [3]: hydrolyzed the substrate efficiently | hydrolysis of the substrate by MMP-8 (in words) [4]: hydrolyzed the substrate efficiently | hydrolysis of the substrate by MMP-13 (in words) [5]: hydrolyzed the substrate efficiently | hydrolysis of the substrate by MMP-3 (in words) [6]: did not

Substance: (Pro-Pro-Gly)6-NHOH
IC50 [7]: 160 µM

Substance: hydroxamate-containing peptidomimetic onto the N-terminus of (Gly-Pro-Hyp)-4-Gly-Pro-Pro-Gly-Ser-Ser [C-terminally branched construct of a second earlier study carrying a hydroxamate-containing peptidomimetic]
IC50 [9]: ~9 nM

Now from value to substance, other results behind:

IC50 [7]: 90 µM
Substance: (Pro-Pro-Gly)12-NHOH

time to hydrolysis of the substrate by MMP-9 [8]: ≤ 1 h
Substance: C6-(Gly-Pro-Hyp)4-Gly-Pro-Pro-Gly˜Val-Val-Gly-Glu-Gln-Gly-Glu-Gln-Gly-Pro-Pro-(Gly-Pro-Hyp)4-NH2 [SEQ ID NO: 5]
hydrolysis of the substrate by MMP-1 (in words) [2]: did not cleave the substrate even after 24 h
